Test results as given in US20210292393A1.
Values joined by “and” are separate entries in the source; they are usually repeats but may differ in a detail not shown here. Equal entries are not always repeated.

Experiments:
Details in all cases: remark: other sources report otherwise
[1] = molecular target: T1, SARS-CoV-2 full length spike protein (wild type) (SARS-CoV-2), P0DTC2
[2] = molecular target: T1, SARS-CoV-2 full length spike protein …; remark: listed apart in the source
[3] = molecular target: SARS-CoV-2 spike (S) protein (SARS-CoV-2), P0DTC2
[4] = molecular target: SARS-CoV-2 spike (S) protein, full length, wild type, expressed on the surface of CHO cells (SARS-CoV-2), P0DTC2
[5] = molecular target: SARS-CoV-2 full length spike protein, wild type, expressed on the surface of transiently transfected CHO cells (SARS-CoV-2), P0DTC2
[6] = molecular target: SARS-CoV-2 spike protein (SARS-CoV-2), P0DTC2
[7] = molecular target: SARS-CoV-2 full length spike protein (wild type), conjugated to beads (SARS-CoV-2), P0DTC2
[8] = molecular target: SARS-CoV-2 full length spike protein (wild-type) (SARS-CoV-2), P0DTC2
[9] = molecular target: SARS-CoV-2 full length spike protein (wild type), expressed on the surface of transiently transfected CHO cells (SARS-CoV-2), P0DTC2
[10] = molecular target: SARS-CoV-2 spike (S) protein, full length, wild type (SARS-CoV-2), P0DTC2

B1: antibody 269 (antibody, V domains shown)
VH: QLQLQESGPGLVKPSETLSLTCTVSGGSISSSSYYWGWIRQPPGKGLEWIGNIYYSGSTYYNPSLKSRVTISVDTSKNQFSLKLSSVTAADTAVYYCAGEELDIVATIYSSRYYYYGMDVWGQGTTVTVSS
VL: QSALTQPASVSGSPGQSITISCTGTSSDVGGYNYVSWYQQHPGKAPKLMIYEVSNRPSGVSNRFSGSKSGNTASLTISGLQAEDEADYYCSSYTSTSTLVFGGGTKLTVL
binding signal, bead assay (fold over isotype) [1]: 480 and 191 and 188 | median fluorescence intensity, fold over isotype control (fold over isotype) [2]: 13.3 and 9.09 | Kd [3]: 7.29 nM | koff [3]: 0.000444 s⁻¹ | kon [3]: 60900 M⁻¹ s⁻¹

B2: antibody 279 (antibody, V domains shown)
VH: EVQLLESGGGLVQPGGSLRLSCAASGFTFSSYAMSWVRQAPGKGLEWVSTISGSGGNTYYADSVKGRFTISRDNSKNTLYLQMNSLRAEDTAVYYCAKDLFQGLYYGSGEFDYWGQGTLVTVSS
VL: QSALTQPASVSGSPGQSITISCTGTSSDVGAYNYVSWYQQHPGKAPKLMIYGVSNRPSGVSNRFSGSKSGNTASLTISGLQAEDEADYYCSSYTSSSTRVFGTGTKVTVL
binding signal, bead assay (fold over isotype) [1]: 3.09 and 1.36 and 1.11 | median fluorescence intensity, fold over isotype control (fold over isotype) [2]: 8.59 and 3.84 | Kd [3]: 52.3 nM | koff [3]: 0.00195 s⁻¹ | kon [3]: 37300 M⁻¹ s⁻¹

B3: antibody 315 (antibody, V domains shown)
VH: QVQLVQSGSELKKPGASVKLSCQASGYSFTNHAMNWVRQAPGQGLEWMGWINTNTGNPTYAQGFTGRFVFSLDTSVSTTYLHISSLKAEDTAVYYCARASARPGVATNLDFWGQGTLVVVSS
VL: DIQMTQSPSSLSASVGDRVTITCRASQNIDNYLNWYQQKPGKAPKLLIYAASRLHSGVPSRFSGSGSGTDFTLIISSLQPEDLATYYCQQSYSNPLTFGPGTKVDIR
median fluorescence intensity fold over isotype (fold over isotype control) [1]: 592 | median fluorescence intensity, fold over isotype control (fold over isotype) [2]: 8.85

B4: antibody 337 (antibody, V domains shown)
VH: QVQLVESGGGVVQPGRSLRLSCAASGFTFSSYGMHWVRQAPGKGLEWVAIIWYDGSNKYYADSVKGRFTISRDNSKNTLYLQMNSLRAEDTAVYYCAKDTGGYCSGGSCYPESYFDYWGQGTLVTVSS
VL: SYVLTQPPSVSVAPGKTARITCGGNNIGSKSVHWYQQKPGQAPVLVIYYDSDRPSGIPERFSGSNSGNTATLTINRVEAGDEADYYCQVWDGSSDHLYVFGTGTKVTVL
median fluorescence intensity fold over isotype (fold over isotype control) [1]: 756 | median fluorescence fold over isotype (fold over isotype) [4]: 2.08

B5: antibody 362 (antibody, V domains shown)
VH: QVQLVESGGGVVQPGRSLRLSCAASGFNLSNYAMHWVRQASGKGLEWVSLISYDGSVKYYTDSVKGRFTVSGDNSKNTLFLQMNSLRPDDSALYYCVRGGVSGPNSFDMWGQGTTVTVSS
VL: DVVMTQSPLSLPVTLGQPATISCRSSQSLVYSDGNTYVNWFQQRPGQSPRRLIYQVSIRASGVPDRFSGSGSGTDFALKISRVEAEDVGVYYCMQGTHWPVTFGQGTKVEIK
median fluorescence intensity fold over isotype (fold over isotype control) [1]: 503 | median fluorescence fold over isotype (fold over isotype) [4]: 9.45

B6: antibody 389 (antibody, V domains shown)
VH: QVQLVESGGGVVQPGRSLRLSCAASGFTFSSYAMHWVRQAPGKGLEWVAVISYDGSNKYYADSVKGRFTISRDNSKNTLYLQMNSLRAEDTAVYYCASQGRMYVRGVDYGVYWGQGTLVTVSS
VL: NFMLTQPHSVSESPGKTVTISCTGSSGSIASNYVQWYQQRPGSAPTTVIYEDNQRPSGVPDRFSGSIDSSSNSASLTISGLKTEDEADYYCQSYDSSKISHAVFGGGTQLTVL
median fluorescence fold over isotype control (fold over isotype) [5]: 0.72 | Kd [6]: < 0.0222 nM | koff [6]: < 1e-05 s⁻¹ | kon [6]: 450000 M⁻¹ s⁻¹

B7: antibody 390 (antibody, V domains shown)
VH: EVQLVESGGGLIQPGGSLRLSCAASGFTVSSNYMSWVRQAPGKGLEWVSIIYSGGSTYYADSVKGRFTISRDNSKNTLYLQMNSLRAEDSAVYSCATTMVRGLIISYYYGMDVWGQGTTVTVSS
VL: QSALTQPASVSGSPGQSITISCTGTSSDVGGYNYVSWYQQHPGKAPKLMIYEVSNRPSGVSNRFSGSKSGNTASLTISGLQAEDEADYYCSSYTSSSTLVFGGGTKLTVL
binding signal, bead assay (fold over isotype) [7]: 637 and 341 and 318 | median fluorescence fold over isotype control (fold over isotype) [5]: 0.73 | Kd [6]: 0.153 nM | koff [6]: 1.97e-05 s⁻¹ | kon [6]: 129000 M⁻¹ s⁻¹

B8: antibody 413 (antibody, V domains shown)
VH: EVQLVESGGGLIQPGGSLRLSCAASGFTVSGNYMNWVRQAPGKGLEWVSVIYSGGSTYYADSVKGRFTISRANSKNTLYLQMNSLRAEDTAVYYCASTSLVRGLIILYYYGMDVWGQGTTVTVSS
VL: QSALTQPASVSGSPGQSITISCTGTSSDVGGYNYVSWYQQHPGKAPKLMIYEVSNRPSGVSNRFSGSKSGNTASLTISGLQAEDEADYYCSSYTSSSTLVFGGGTKLTVL
Binding to Wild-Type SARS-CoV-2 (Bead Assay) [8]: 969 and 367 and 416 | median fluorescence fold over isotype control (fold over isotype) [5]: 1.11 | Kd [6]: < 0.0338 nM | koff [6]: < 1e-05 s⁻¹ | kon [6]: 296000 M⁻¹ s⁻¹

B9: antibody 452 (antibody, V domains shown)
VH: QVQLVESGGGLVKPGGSLRLSCAASGFTFSDYYLSWIRQAPGKGLEWVSYISSSGSNIYYADSVKGRFTISRDNAKNSLYLQMNSLRADDTAVFYCARAGRYCSGGSCRVEYFQHWGQGTLVTVSS
VL: SYELTQPPSVSVSPGQTARITCSGDALPKQYAYWYQQKPGQAPVLVIYKDNERPSGIPERFSGSSSGTTATLTISGVQAEDEADYYCQSADSSGTVVFGGGTKLTVL
Binding to Wild-Type SARS-CoV-2 (Bead Assay) [8]: 854 | median fluorescence intensity, fold over isotype control (fold over isotype) [9]: 26.8

B10: antibody 472 (antibody, V domains shown)
VH: EVQLVESGGGLIQPGGSLRLSCAASGFTVSSNYMSWVRQAPGKGLEWVSVIYSGGTTHYADSVKGRFTISRDNSKNTLYLQMNSLRAEDTAVYYCANYGMDVWGQGTTVTVSS
VL: SYELTQPSSVSVSPGQTARITCSGDVLAKKYARWFQQKPGQAPVLVIYKDSERPSGIPERFSGSSSGTTVTLTISGAQVEDEADYYCYSAADKVFGGGTKLTVL
median fluorescence intensity, fold over isotype control (fold over isotype) [9]: 0.91 | Kd [6]: < 0.469 nM | koff [6]: < 1e-05 s⁻¹ | kon [6]: 21300 M⁻¹ s⁻¹

B11: antibody 392 (antibody, V domains shown)
VH: QVQLQESGPGLVKPSGTLSLTCAVSGGSISSSNWWSWVRQPPGKGLEWIGEIYHSGSTNYNPSLKSRVTISVDKSKNQFSLKLSSVTAADTAVYYCARGWRATLYGMDVWGQGTTVTVSS
VL: QSALTQPASVSGSPGQSITISCTGTSSDVGSYNLVSWYQQHPGKAPKLMIYEVSKRPSGVSNRFSGSKSGNTASLTISGLQAEDEADYYCCSYAGSSTWVFGGGTKLTVL
binding signal, bead assay (fold over isotype) [7]: 509

B12: antibody 396 (antibody, V domains shown)
VH: QVQLQQWGAGLLKPSETLSLTCAVYGGSFSGYYWSWIRQPPGKGLEWIGEIIHSGSTNYNPSLKSRVTISVDTSKNQFSLKLSSVTAADTAVYYSARRTGLLWFREGSYYFDYWGQGTLVTVSS
VL: DIQMTQSPSSLSASVGDRVTITCRASQGIRNDLGWYQQKPGKAPKRLIYAASSLQSGVPSRFSGSGSGTEFTLTISSLQPEDFATYYCLQHNSYPLTFGGGTKVEIK
binding signal, bead assay (fold over isotype) [7]: 553

B13: antibody 444 (antibody, V domains shown)
VH: QVQLVESGGGLVKPGGSLRLSCAASGFTFSDYYMSWIRQAPGKGLEWVSYISSSGSTIYYADSVKGRFTISRDNAKNSLYLQMNSLRAEDTAVYYCARERKVVVAATRNYYYYYGMDVWGQGTTVTVSS
VL: SYELTQPPSVSVSPGQTARITCSGDALPKQYAYWYQQKPGQAPVLVIYKDSERPSGIPERFSGSSSGTTVTLTISGVQAEDEADYYCQSADSSTWVFGGGTKLTVL
Binding to Wild-Type SARS-CoV-2 (Bead Assay) [8]: 0.97 and 0.91 and 0.9 | Kd [6]: 27.2 nM | koff [6]: 0.000717 s⁻¹ | kon [6]: 26400 M⁻¹ s⁻¹

B14: antibody 416 (antibody, V domains shown)
VH: EVQLVESGGGLVQPGRSLRLSCAASGFTFDDYAMHWVRQAPGKGLEWVSGISWNSGSIGYADSVKGRFTISRDNAKNSLYLQMNSLRAEDTALYYCAKDLAWLSGGMDVWGQGTTVTVSS
VL: not shown
Binding to Wild-Type SARS-CoV-2 (Bead Assay) [8]: 110

B15: anti-SARS-CoV-2 antibody 485 (antibody, V domains shown)
VH: QVQLQESGPGLVKPSGTLSLTCAVSGASISSSNWWSWVRQPPGKGLEWIGEIYHSGSTNYNPSLKSRVTISVDKSKNQFSLKLSSVTAADTAVYYCARRSYYGSGSYYPFDYWGQGTLVTVSS
VL: QSALTQPASVSGSPGQSITISCTGTSSDVGSYNLVSWYQQHPGKAPKLMIYEGRKRPSGVSNRFSGSKSGNTASLTISGLQAEDEADYYCCSYAGSSTYVFGTGTKVTVL
median fluorescence fold over isotype (fold over isotype) [10]: 510

B16: anti-SARS-CoV-2 antibody 495 (antibody, V domains shown)
VH: QITLKESGPTLVKPTQTLTLTCTFSGFSLSTSGVGVGWIRQPPGKALEWLALIYWDDDKRYSPSLKSRLTITKDTSKNQVVLIMTNMDPVDTATYYCAHRDSSSWFDLDAFDIWGQGTMVIVSS
VL: QSVLTQPPSVSEAPRQRVTISCSGSSSNIGNNAVNWYQQLPGKAPKLLIYYDDLLPSGVSDRFSGSKSGTSASLAISGLQSEDEADYYCAAWDDRLNGPVFGGGTKLTVL
median fluorescence fold over isotype (fold over isotype) [10]: 1090 and 384 and 530

B17: anti-SARS-CoV-2 antibody 499 (antibody, V domains shown)
VH: EVQLVESGGGLVKPGGSLRLSCAASGFTFSSYSMNWVRQAPGKGLEWVSSISSSSSYIYYADSVKGRFTISRDNAKNSLYLQMNSLRAEDTAVYYCARAPAGIVVGPDYWGQGTLVTVSS
VL: NFMLTQPHSVSESPGKTVTISCTGSSGSIASNYVQWYQQRPGSAPTTVIFEDNQRPSGVPDRFSGSIDSSSNSASLTISGLKTEDEADYYCQSYHSSNPHVVFGGGTKLTVL
median fluorescence fold over isotype (fold over isotype) [10]: 1120 and 386 and 432
